Source: patent US20180021429A1, “ANTICANCER AGENTS OR ANTIMETASTATIC AGENTS USING FSTL1 AND COMBINATION DRUG THEREOF” (PHARMA FOODS INTERNATIONAL CO., LTD., priority 2015, published 2018)
“Also recorded” adds a separate entry of the source.

Test system: induction of mesenchymal stem cells (MSCs) by FSTL1
Assay: Inhibitory activity against induction of MSC by FSTL1, CD45-negative cells (Examples 6, 8, 12)
Type: cell-based, mouse
Settings: antibody 10 μg/mL
Experimental: (§1) Mouse bone marrow cells prepared in the same way as in Example 4 were supplemented with 50 ng/mL (final concentration) of FSTL1 and 10 μg/mL of the anti-FSTL1 antibody (#5-2, #5-3, #5-8, #5-10, 45-43, #6-55, or #7-34) or a control antibody anti-DNP antibody and cultured under stimulation. 11 days thereafter, the number of cells was counted while the cells were stained with a PE-Cy5-labeled anti-CD45 antibody (BD Pharmingen/Becton, Dickinson and Company, Cat. No. 555484), and the content of CD45-negative cells reported to generally contain MSCs at a high rate was analyzed by flow cytometry using FACScan to calculate the percentage and number of MSCs per culture (FIG. 5A).
(§2) Mouse bone marrow cells prepared in the same way as in Example 4 were supplemented with 20 ng/mL (final concentration) of FSTL1 and 10 μg/mL of the anti-FSTL1 antibody (#5-2, #5-3, #5-8, #5-10, #5-43, #6-55, #8-1, #8-4, #8-7, and #8-8) or a control antibody anti-DNP antibody and cultured under stimulation. 8 days thereafter, the number of cells was counted while the cells were stained with a PE-Cy5-labeled anti-CD45 antibody, and the content of CD45-negative cells was analyzed by flow cytometry using FACScan to calculate the percentage and number of MSCs per culture (FIG. 6A).
as §2, with “(#5-2,” for “(#5-2, #5-3,”, “#5-8,” for “#5-8, #5-10, #5-43,”, “#6-55, #7-34,” for “#6-55,”, “#8-7, or” for “#8-7, and”, “(FIG. 7).” for “(FIG. 6A).”
as §1, with “35A).” for “5A).”
as §2, with “36A).” for “6A).”
as §2, with “(#5-2,” for “(#5-2, #5-3,”, “#5-8,” for “#5-8, #5-10, #5-43,”, “#6-55, #7-34,” for “#6-55,”, “#8-7, or” for “#8-7, and”, “(FIG. 37).” for “(FIG. 6A).”

[1] = Example 6, FIG. 5A/35A, FSTL1 50 ng/mL, 11 days
[2] = Example 8, FIG. 6A/36A, FSTL1 20 ng/mL, 8 days
[3] = Example 12, FIG. 7/37, FSTL1 20 ng/mL, 8 days

B1: #5-43: chicken-mouse chimeric anti-FSTL1 antibody clone; variable regions SEQ ID NO: 779 (light), 781 (heavy) (antibody, V domains shown)
VH: AVTLDESGGGLQTPGGGLSLVCKGSGFTFSSFNMFWVRQAPGKGLEWVAGIGKDGGTGYGAAVDGRATISKDSGQSTLRLQLNNLRAEDTGTYYCAKAAGGCSYDWCGAYTGDIDTWGHGTEVIVSS
VL: ASTQPSSVSANPGEAVKITCSGGSGSYYGWYQQKSPGSAPVTVIYNNNQRPSDIPSRFSGSKSGSTATLTITGVQAEDEAVYFCGGYDSSTGHGGIFGAGTTLTVL
modifications: mouse constant regions
- inhibitory activity against the expansion of CD45-negative cells by FSTL1 [1]: higher inhibitory activity and substantially completely inhibited the action of FSTL1
- inhibitory activity against the expansion of CD45-negative cells by FSTL1 [2]: exhibited inhibitory activity against the expansion of CD45-negative cells by FSTL1; also recorded: Inhibitory activity was confirmed

B2: #8-1: chicken-mouse chimeric anti-FSTL1 antibody clone; variable regions SEQ ID NO: 791 (light), 793 (heavy) (antibody, V domains shown)
VH: AVTLDESGGGLQTPGGALSLVCKGSGFTFSSFNMFWVRQAPGKGLEWVAGIGKDGVPKYGAAVDGRATISKDNGQSTMRLQLNNLRAEDTGTYFCAKAAGGCSYDWCGIYAGDIDTWGHGTEVIVSS
VL: ASTQPSSVSANPGEAVKITCSGGSGSYYGWYQQKSPGSAPVTVIYNNNQRPSDIPSRFSGSKSGSTATLTITGVQAEDEAVYFCGGYDSSSGHGGIFGAGTTLTVL
modifications: mouse constant regions
- inhibitory activity against the expansion of CD45-negative cells by FSTL1 [2]: exhibited inhibitory activity against the expansion of CD45-negative cells by FSTL1; also recorded: Inhibitory activity was confirmed

B3: #8-4: chicken-mouse chimeric anti-FSTL1 antibody clone; variable regions SEQ ID NO: 795 (light), 797 (heavy) (antibody, V domains shown)
VH: AVTLDESGGGLQTPGGGLSLVCKGSGFTLSSFNMFWVRQAPGKGLEWVAGVGKDGGTAYGAAVDGRATISRDSGQSTVRLQLNNLRAEDTGTYFCAKAAGGCSYSWCGAYVGDLDAWGHGTEVIVSS
VL: ASSQPSSVSANPGETVKITCSGGSGYYYGWYQQKSPGSAPVTVIYNNDNKPSDIPSRFSGSKSGSTGTLTITGVQVEDEAVYFCGGYDNSGTGIFGAGTTLTVL
modifications: mouse constant regions
- inhibitory activity against the expansion of CD45-negative cells by FSTL1 [2]: exhibited inhibitory activity against the expansion of CD45-negative cells by FSTL1

B4: #5-2: chicken-mouse chimeric anti-FSTL1 antibody clone; variable regions SEQ ID NO: 763 (light), 765 (heavy) (antibody, V domains shown)
VH: AVTLDESGGGLQTPGGGLSLVCKGSGFTFSSFNMFWVRQAPGKGLEWVAGVGKDGGTGYGAAVDGRATISKDNGQSTLRLQLNNLRAEDTGTYYCAKAAGGCSYGWCGSYVGDIDAWGHGTEVIVSS
VL: ASTQPSSVSANPGEAVKITCSGGSGSYYGWYQQKSPGSAPVTVIYNNNQRPSDIPSRFSGSKSGSTATLTITGVQAEDEAVYFCGGYDSSTGHGGIFGAGTTLTVL
modifications: mouse constant regions
- inhibitory activity against the expansion of CD45-negative cells by FSTL1 [3]: higher inhibitory activity was confirmed in the order of #7-34, #5-2, #6-55, and #8-7; also recorded: stronger inhibitory activity was confirmed in the order of clone #7-34, #5-2, 46-55, and #8-7

B5: #5-3: chicken-mouse chimeric anti-FSTL1 antibody clone; variable regions SEQ ID NO: 767 (light), 769 (heavy) (antibody, V domains shown)
VH: AVTLDESGGGLQTPGGALSLVCKGSGFSFSSFNMFWVRQAPGKGLEWVAGIGKDGVPKYGAAVDGRATISKDNGQSTMRLQLNNLRAEDTGTYFCAKAAGGCSYDWCGIYAGDIDTWGHGTEVIVSS
VL: ASTQPSSVSANPGETVKITCSGGSGYYYGWYQQKSPGSVPVTVIYNNNNRPSDIPSRFSGSKSGSTGTLTITGVRAEDEAVYYCGGYDNSGTGIFGAGTTLTVL
modifications: mouse constant regions
- inhibitory activity against the expansion of CD45-negative cells by FSTL1 [1]: higher inhibitory activity and substantially completely inhibited the action of FSTL1

B6: #5-8: chicken-mouse chimeric anti-FSTL1 antibody clone; variable regions SEQ ID NO: 771 (light), 773 (heavy) (antibody, V domains shown)
VH: AVTLDESGGGLQTPGGGLSLVCKGSGFTFSSFNMFWVRQAPGKGLEWVAGIGKDGVPKYGTAVDGRATISKDNGQSTMRLQLNNLRAEDTGTYFCAKAAGGCSYDWCGIYTGDIDTWGHGTEVIVSS
VL: ASTQPSSVSANPGEAVKITCSGGSGSYYGWYQQKSPGSAPVTVIYNNNQRPSDIPSRFSGSKSGSTATLTITGVQAEDEAVYFCGGYDSSTGHGGIFGAGTTLTVL
modifications: mouse constant regions
- inhibitory activity against the expansion of CD45-negative cells by FSTL1 [1]: higher inhibitory activity and substantially completely inhibited the action of FSTL1
- inhibitory activity against the expansion of CD45-negative cells by FSTL1 [2]: exhibited inhibitory activity against the expansion of CD45-negative cells by FSTL1; also recorded: Inhibitory activity was confirmed

B7: #6-55: chicken-mouse chimeric anti-FSTL1 antibody clone; variable regions SEQ ID NO: 783 (light), 785 (heavy) (antibody, V domains shown)
VH: AVTLDESGGGLQTPGGALSLVCKGSGFTFTSVTMQWVRQAPGKGLEWVASVCSGSSTYYAPAVKGRATISRDNGQSTVRLQLSNLRPEDTGTYYCAKIAGRARWSCTSAAYNIDAWGHGTEVIVSS
VL: ASTQPSSVSAIPGETVKITCSGGGNNYGWYQQRSPGSAPVTVIYYNDNRPSNIPSRFSGSTSGSTSTLTITGVQADDEAIYYCGSWDSNTDSGIFGAGTTLTVL
modifications: mouse constant regions
- inhibitory activity against the expansion of CD45-negative cells by FSTL1 [2]: exhibited inhibitory activity against the expansion of CD45-negative cells by FSTL1; also recorded: Inhibitory activity was confirmed
- inhibitory activity against the expansion of CD45-negative cells by FSTL1 [3]: higher inhibitory activity was confirmed in the order of #7-34, #5-2, #6-55, and #8-7

B8: #7-34: chicken-mouse chimeric anti-FSTL1 antibody clone; variable regions SEQ ID NO: 787 (light), 789 (heavy) (antibody, V domains shown)
VH: AVTLDESGGGLQTPGGGLSLVCKASGFTFSSVTMQWVRQAPGKGLEWVASICSGSSTYYGPAVKGRATISRDNGQNTVRLQLNNLRAEDTATYYCAKIVGRGRWSCTSAAYNIDAWGHGTEVIVSS
VL: ASTQPSSVSANPGETVKITCSGGGNNYGWYQQKSPGSAPVTVIYYNNNRPSNIPSRFSGSTSGSTSTLTITGVQAEDEAVYYCGSYEGSTDSGIFGAGTTLTVL
modifications: mouse constant regions
- inhibitory activity against the expansion of CD45-negative cells by FSTL1 [1]: higher inhibitory activity and substantially completely inhibited the action of FSTL1
- inhibitory activity against the expansion of CD45-negative cells by FSTL1 [3]: higher inhibitory activity was confirmed in the order of #7-34, #5-2, #6-55, and #8-7; also recorded: stronger inhibitory activity was confirmed in the order of clone #7-34, #5-2, 46-55, and #8-7
